In test [1] the target is T1, human CD33 expressed on cells (human, UniProt P20138 18-364).
T1 construct: endogenous CD33 of human AML cell lines and blood monocytes; also called cell-expressed CD33 (Molm-13, Mv4-11, monocytes)
Nature of the test: flow cytometry on Mv4-11 cells, fluorophore-conjugated anti-human IgG secondary antibody, MFI as fold over background (FOB). For orientation: A flow cytometer gives signals particle by particle.
Experimental: (§1) The cells were analyzed by flow cytometry, and fold over background values were calculated by normalizing binding MFI to the MFI of a control group in which the cells were incubated with the secondary antibody only.

For test [2], the target named is T2, human NKG2D expressed on cells (human, UniProt P26718 1-216).
T2 construct: whole, on cells; also called hNKG2D; EL4-hNKG2D
T2 sequence (looked up): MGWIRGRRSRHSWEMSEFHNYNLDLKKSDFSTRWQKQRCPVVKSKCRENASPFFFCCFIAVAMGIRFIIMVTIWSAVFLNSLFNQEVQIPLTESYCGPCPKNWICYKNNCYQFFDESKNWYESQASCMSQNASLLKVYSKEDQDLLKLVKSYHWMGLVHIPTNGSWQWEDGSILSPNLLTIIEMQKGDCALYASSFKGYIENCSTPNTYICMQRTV
Briefly: flow cytometry on EL4-hNKG2D cells.
Experimental: EL4-hNKG2D cells were incubated with the diluted TriNKET or mAb solutions. Binding of the TriNKET or mAb to the EL4 cells was detected using a fluorophore-conjugated anti-human IgG secondary antibody. The cells were analyzed by flow cytometry, and fold over background values were calculated by normalizing binding MFI to the MFI of a control group in which the cells were incubated with the secondary antibody only.

Test [3] has as its target T1, human CD33 expressed on cells. Nature of the test: flow cytometry on Molm-13 cells, fluorophore-conjugated anti-human IgG secondary antibody, MFI as fold over background (FOB).
Experimental: as §1
Test [4] deals with T3, C domain of human CD33 (human, UniProt P20138 140-259, limits assumed).
T3 construct: recombinant C domain
Briefly: SPR, Fab captured, 37C.
Experimental: (§2) Kinetics and affinity of a series of Fab fragments of anti-CD33 antibodies with different CD33 variants (human CD33 ECD, cyno CD33 ECD, V-domain of human CD33, C-domain or human CD33 and selected CD33 SNPs) were assessed by surface plasmon resonance using Biacore 8K instrument (GE Healthcare). Anti-Fab antibody was immobilized on a CMS chip using standard amine coupling chemistry. CD33 FABs were captured on the anti-Fab chip at a density of ˜100 RU. Solutions containing different concentrations of soluble monomeric CD33 or its domains were injected over the captured FABs and control surfaces at 30 μl/min at 37° C. Surfaces were regenerated between cycles by quick injection of 10 mM glycine, pH 1.8. To obtain kinetic rate constants double-referenced data were fit to a 1:1 interaction model using Biacore 8K Evaluation software (GE Healthcare). The equilibrium binding constant KD was determined by the ratio of binding rate constants kd/kₐ.

For test [5], the target named is T4, V domain of human CD33 (human, UniProt P20138 18-139, limits assumed).
T4 construct: recombinant, fully glycosylated V domain; also called Human CD33 V domain
Briefly: SPR, Fab captured, 37C. (SPR reads the build-up and loss of mass on a sensor chip optically.)
Experimental: as §2

The target of test [6] is T5, human CD33 extracellular domain (human, UniProt P20138 18-259).
T5 construct: soluble monomeric ECD; also called human CD33 ECD; hCD33
Nature of the test: SPR, Fab captured, 37C.
Experimental: as §2

Test [7] concerns the target T5, human CD33 extracellular domain. Nature of the test: SPR, Fab captured, 37C. The source holds these as a separate data set.
Experimental: as §2
(§3) Affinity of 29 Fab fragments binding to human and cyno CD33 ECD were assayed by Biacore analysis.
Test [8] has as its target T6, cyno CD33 extracellular domain (Cynomolgus/Rhesus (cyno)).
T6 construct: soluble monomeric ECD; also called cyno CD33 ECD
Nature of the test: SPR, Fab captured, 37C.
Experimental: as §2, §3

In test [9] the target is T5, human CD33 extracellular domain. Briefly: SPR, Fab captured, 37C. This is another data set of the same source.
Experimental: as §2, §3
Test [10] deals with T4, V domain of human CD33. Nature of the test: SPR, Fab captured, 37C. The source holds these as a separate data set.
The target of test [11] is T7, deglycosylated V domain of human CD33 (human, UniProt P20138 18-139, limits assumed, N-glycans removed by PNGase).
T7 construct: V domain deglycosylated by PNGase before testing; also called deglycosylated V CD33
Nature of the test: SPR, Fab captured, 37C.

The target of test [12] is T4, V domain of human CD33. Briefly: SPR, Fab captured, 37C. This is another data set of the same source.
Experimental: as §2
The target in test [13] is T5, human CD33 extracellular domain. Briefly: SPR, Fab captured, 37C. This is another data set of the same source.
Experimental: as §2
Test [14] concerns the target T3, C domain of human CD33. Briefly: SPR, Fab captured, 37C. This is another data set of the same source.
Experimental: as §2
Test [15] deals with T5, human CD33 extracellular domain. Briefly: SPR, Fab captured, 37C. The source holds these as a separate data set.
Experimental: as §2

Where two headings read alike, the source gives them in different places.

B1: I07-F405L mAb (antibody, human IgG1, kappa, V domains shown)
VH: EVQLVESGGGLVQPGGSLRLSCAASGFTFGSYWMSWVRQAPGKGLEWVATIKQDGSEKSYVDSVKGRFTISRDNAKNSLYLQMNSLRAEDTAVYYCARPLNAGELDVWGQGTMVTVSS
VL: DIQMTQSPSTLSASVGDRVTITCRASQSISSWLAWYQQKPGKAPKLLIYEASSLESGVPSRFSGSGSGTEFTLTISSLQPDDFATYYCQQSQSYPPITFGGGTKVEIKR
notes: Fc variant of I07 with F405L (EU); a Lys may optionally stand at the C-terminus of the heavy chain
The term EC50 (read off the curve) denotes the concentration giving half of the maximal effect. A lower EC50 (read off the curve) goes with greater potency. For the molecule B1, the “EC50 (read off the curve)” value in [1] is about 0.3 µg/mL; in test [3], about 2 µg/mL. Further, the binding result in test [2] is given as “no binding”.

B2: ADI-11801 Fab (Fab, V domains shown)
VH: QVQLVQSGAEVKKPGASVKVSCKASGYTFSDYYMHWVRQAPGQGLEWMGMINPSWGSTSYAQKFQGRVTMTRDTSTSTVYMELSSLRSEDTAVYYCAREAADGFVGERYFDLWGRGTLVTVSS
VL: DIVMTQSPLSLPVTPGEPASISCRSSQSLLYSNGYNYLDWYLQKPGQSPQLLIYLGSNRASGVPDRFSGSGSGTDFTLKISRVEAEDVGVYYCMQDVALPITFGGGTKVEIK
notes: Fab fragment; also called Ab4
For orientation: Kd means a measure of binding affinity in units of concentration. A low value points to a tighter complex. Broadly, the koff is a measure of how fast the partners let go of each other. The kon is a measure of how fast the partners come together. The low end stands for slow association, the high end for fast association. Take B2: the figures for the binding result in test [4] and in test [8] were “no binding” and “no binding (tested: 100 nM)”, respectively. Moreover, the Kd in test [5] was determined as 0.69 nM; in test [6], 0.55 nM; in test [7] it was 0.55 nM; in test [9] it was 0.55 nM; in test [10] it was 0.69 nM; in [11], 0.55 nM. The values for the Kd in test [12] and in test [13] were 0.69 nM and 0.55 nM, respectively. Besides, the koff in test [5] was determined as 0.00125 s⁻¹; in test [6] it was 0.000417 s⁻¹; in [7], 0.000417 s⁻¹; in test [9] it was 0.000417 s⁻¹; in test [10] it was 0.00125 s⁻¹; in [11], 0.00115 s⁻¹. Moreover, the koff in test [12] was found to be 0.00125 s⁻¹; in test [13], 0.000417 s⁻¹. Moreover, the kon in test [5] worked out at 1.8e+06 M⁻¹ s⁻¹; in test [6] it was 756000 M⁻¹ s⁻¹; in test [7] it was 756000 M⁻¹ s⁻¹; in test [9], 756000 M⁻¹ s⁻¹; in test [10], 1.8e+06 M⁻¹ s⁻¹; in test [11], 2.1e+06 M⁻¹ s⁻¹. Also, the figures for the kon in test [12] and in test [13] were 1.8e+06 M⁻¹ s⁻¹ and 756000 M⁻¹ s⁻¹, respectively.

B3: A49-F3′-TriNKET-I07 (bispecific antibody, human IgG1, kappa)
chain: DIQMTQSPSTLSASVGDRVTITCRASQSISSWLAWYQQKPGKAPKLLIYEASSLESGVPSRFSGSGSGTEFTLTISSLQPDDFATYYCQQSQSYPPITFGCGTKVEIKGGGGSGGGGSGGGGSGGGGSEVQLVESGGGLVQPGGSLRLSCAASGFTFGSYWMSWVRQAPGKCLEWVATIKQDGSEKSYVDSVKGRFTISRDNAKNSLYLQMNSLRAEDTAVYYCARPLNAGELDVWGQGTMVTVSSASDKTHTCPPCPAPELLGGPSVFLFPPKPKDTLMISRTPEVTCVVVDVSHEDPEVKFNWYVDGVEVHNAKTKPREEQYNSTYRVVSVLTVLHQDWLNGKEYKCKVSNKALPAPIEKTISKAKGQPREPRVYTLPPCRDELTKNQVSLTCLVKGFYPSDIAVEWESNGQPENNYKTTPPVLVSDGSFTLYSKLTVDKSRWQQGNVFSCSVMHEALHNHYTQKSLSLSPG
heavy: EVQLVESGGGLVKPGGSLRLSCAASGFTFSSYSMNWVRQAPGKGLEWVSSISSSSSYIYYADSVKGRFTISRDNAKNSLYLQMNSLRAEDTAVYYCARGAPMGAAAGWFDPWGQGTLVTVSSASTKGPSVFPLAPSSKSTSGGTAALGCLVKDYFPEPVTVSWNSGALTSGVHTFPAVLQSSGLYSLSSVVTVPSSSLGTQTYICNVNHKPSNTKVDKKVEPKSCDKTHTCPPCPAPELLGGPSVFLFPPKPKDTLMISRTPEVTCVVVDVSHEDPEVKFNWYVDGVEVHNAKTKPREEQYNSTYRVVSVLTVLHQDWLNGKEYKCKVSNKALPAPIEKTISKAKGQPREPQVCTLPPSRDELTENQVSLTCLVKGFYPSDIAVEWESNGQPENNYKTTPPVLDSDGSFFLYSWLTVDKSRWQQGNVFSCSVMHEALHNHYTQKSLSLSPG
light: DIQMTQSPSSVSASVGDRVTITCRASQGISSWLAWYQQKPGKAPKLLIYAASSLQSGVPSRFSGSGSGTDFTLTISSLQPEDFATYYCQQGVSFPRTFGGGTKVEIKRTVAAPSVFIFPPSDEQLKSGTASVVCLLNNFYPREAKVQWKVDNALQSGNSQESVTEQDSKDSTYSLSSTLTLSKADYEKHKVYACEVTHQGLSSPVTKSFNRGEC
notes: trispecific: I07 scFv-Fc (CD33), A49 VH-CH1-Fc and A49 VL-CL (NKG2D Fab), heterodimeric IgG1 Fc (CD16); also called TriNKET derivative of I07 mAb
Take B3: the results for the “EC50 (read off the curve)” value in test [1] and in test [3] were about 2 µg/mL and about 5 µg/mL, respectively.

B4: ADI-11815 Fab (Fab, V domains shown)
VH: QVQLVQSGAEVKKPGASVKVSCKASGYTFGTYYMHWVRQAPGQGLEWMGIINPSRGSTVYAQKFQGRVTMTRDTSTSTVYMELSSLRSEDTAVYYCARGAGYDDEDMDVWGKGTTVTVSS
VL: DIQMTQSPSSVSASVGDRVTITCRASQGIDSWLAWYQQKPGKAPKLLIYAASSLQSGVPSRFSGSGSGTDFTLTISSLQPEDFATYYCQQAHSYPLTFGGGTKVEIK
notes: Fab fragment; also called Ab7
On to B4, for which the Kd in test [7], in [9], in test [15] and in test [13] was 0.23 nM each time. Further, the koff in test [7], in test [9], in test [15] and in test [13] was 7.91e-05 s⁻¹ in each case. The kon in test [7], in test [9], in test [15] and in test [13] was 339000 M⁻¹ s⁻¹ in each case. In addition, the binding result in test [8] is “no binding (tested: 100 nM)”; in [14], “no binding”; in test [12] it was “no binding”.

The values above are taken from US20220380459A1 (DRAGONFLY THERAPEUTICS, published 2022).
